Key:
HeLa Kyoto [1] = assay: solubility change mitosis vs G1/S (difference of NP-40 vs SDS log2 ratios) (log2 ratio difference); higher = more soluble in mitosis
HeLa Kyoto [2] = assay: solubility in G1/S (NP-40 vs SDS abundance) (log2 ratio); higher = more soluble; conditions: cell cycle stage: G1/S
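For solubility change mitosis vs G1/S (difference of NP-40 vs SDS log2 ratios) in this document: synchronized HeLa Kyoto cells (double thymidine block for G1/S, nocodazole release for mitosis), protein amounts in NP-40 versus SDS lysates quantified by mass spectrometry, three biological replicates.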
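For solubility in G1/S (NP-40 vs SDS abundance) in this document: HeLa Kyoto cells arrested at G1/S by double thymidine block, proteins quantified by TMT10plex mass spectrometry in mild NP-40 versus SDS extracts, three biological replicates.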

In the case of “MRGPSGALWLLLALRTVLGGMEVRWCATSDPEQHKCGNMSEAFREAGIQPSLLCVRGTSADHCVQLIAAQEADAITLDGGAIYEAGKEHGLKPVVGEVYDQEVGTSYYAVAVVRRSSHVTIDTLKGVKSCHTGINRTVGWNVPVGYLVESGRLSVMGCDVLKAVSDYFGGSCVPGAGETSYSESLCRLCRGDSSGEGVCDKSPLERYYDYSGAFRCLAEGAGDVAFVKHSTVLENTDGKTLPSWGQALLSQDFELLCRDGSRADVTEWRQCHLARVPAHAVVVRADTDGGLIFRLLNEGQRLFSHEGSSFQMFSSEAYGQKDLLFKDSTSELVPIATQTYEAWLGHEYLHAMKGLLCDPNRLPPYLRWCVLSTPEIQKCGDMAVAFRRQRLKPEIQCVSAKSPQHCMERIQAEQVDAVTLSGEDIYTAGKTYGLVPAAGEHYAPEDSSNSYYVVAVVRRDSSHAFTLDELRGKRSCHAGFGSPAGWDVPVGALIQRGFIRPKDCDVLTAVSEFFNASCVPVNNPKNYPSSLCALCVGDEQGRNKCVGNSQERYYGYRGAFRCLVENAGDVAFVRHTTVFDNTNGHNSEPWAAELRSEDYELLCPNGARAEVSQFAACNLAQIPPHAVMVRPDTNIFTVYGLLDKAQDLFGDDHNKNGFKMFDSSNYHGQDLLFKDATVRAVPVGEKTTYRGWLGLDYVAALEGMSSQQCSGAAAPAPGAPLLPLLLPALAARLLPPAL [MFI2]”, the “solubility change mitosis (log2)” value (HeLa Kyoto [1]) is reported as -0.0542 and the “solubility in G1/S (log2)” value (HeLa Kyoto [2]) is reported as -0.519.
In the case of “METAPKPGKDVPPKKDKLQTKRKKPRRYWEEETVPTTAGASPGPPRNKKNRELRPQRPKNAYILKKSRISKKPQVPKKPREWKNPESQRGLSGTQDPFPGPAPVPVEVVQKFCRIDKSRKLPHSKAKTRSRLEVAEAEEEETSIKAARSELLLAEEPGFLEGEDGEDTAKICQADIVEAVDIASAAKHFDLNLRQFGPYRLNYSRTGRHLAFGGRRGHVAALDWVTKKLMCEINVMEAVRDIRFLHSEALLAVAQNRWLHIYDNQGIELHCIRRCDRVTRLEFLPFHFLLATASETGFLTYLDVSVGKIVAALNARAGRLDVMSQNPYNAVIHLGHSNGTVSLWSPAMKEPLAKILCHRGGVRAVAVDSTGTYMATSGLDHQLKIFDLRGTYQPLSTRTLPHGAGHLAFSQRGLLVAGMGDVVNIWAGQGKASPPSLEQPYLTHRLSGPVHGLQFCPFEDVLGVGHTGGITSMLVPGAGEPNFDGLESNPYRSRKQRQEWEVKALLEKVPAELICLDPRALAEVDVISLEQGKKEQIERLGYDPQAKAPFQPKPKQKGRSSTASLVKRKRKVMDEEHRDKVRQSLQQQHHKEAKAKPTGARPSALDRFVR [WDR46]”, the “solubility change mitosis (log2)” value (HeLa Kyoto [1]) is reported as 0.592 and the “solubility in G1/S (log2)” value (HeLa Kyoto [2]) is reported as -1.25.
With “MAFGKSHRDPYATSVGHLIEKATFAGVQTEDWGQFMHICDIINTTQDGPKDAVKALKKRISKNYNHKEIQLTLSLIDMCVQNCGPSFQSLIVKKEFVKENLVKLLNPRYNLPLDIQNRILNFIKTWSQGFPGGVDVSEVKEVYLDLVKKGVQFPPSEAEAETARQETAQISSNPPTSVPTAPALSSVIAPKNSTVTLVPEQIGKLHSELDMVKMNVRVMSAILMENTPGSENHEDIELLQKLYKTGREMQERIMDLLVVVENEDVTVELIQVNEDLNNAILGYERFTRNQQRILEQNKNQKEATNTTSEPSAPSQDLLDLSPSPRMPRATLGELNTMNNQLSGLNFSLPSSDVTNNLKPSLHPQMNLLALENTEIPPFAQRTSQNLTSSHAYDNFLEHSNSVFLQPVSLQTIAAAPSNQSLPPLPSNHPAMTKSDLQPPNYYEVMEFDPLAPAVTTEAIYEEIDAHQHKGAQNDGD [TOM1L1]” the “solubility change mitosis (log2)” value (HeLa Kyoto [1]) was -0.0535 and the “solubility in G1/S (log2)” value (HeLa Kyoto [2]) was 0.297.
With “MRSLRKKREKPRPEQWKGLPGPPRAPEPEDVAVPGGVDLLTLPQLCFPGGVCVATEPKEDCVHFLVLTDVCGNRTYGVVAQYYRPLHDEYCFYNGKTHRECPGCFVPFAVCVVSRFPYYNSLKDCLSCLLALLKPCKDFEVDSHIKDFAAKLSLIPSPPPGPLHLVFNMKSLQIVLPARADPESPILDLDLHLPLLCFRPEKVLQILTCILTEQRIVFFSSDWALLTLVTECFMAYLYPLQWQHPFVPILSDQMLDFVMAPTSFLMGCHLDHFEEVSKEADGLVLINIDHGSITYSKSTDDNVDIPDVPLLAAQTFIQRVQSLQLHHELHAAHLLSSTDLKEGRAHRRSWQQKLNCQIQQTTLQLLVSIFRDVKNHLNYEHRVFNSEEFLKTRAPGDHQFYKQVLDTYMFHSFLKARLNRRMDAFAQMDLDTQSEEDRINGMLLSPRRPTVEKRASRKSSHLHVTHRRMVVSMPNLQDIAMPELAPRNSSLRLTDTAGCRGSSAVLNVTPKSPYTFKIPEIHFPLESKCVQAYHAHFVSMLSEAMCFLAPDNSLLLARYLYLRGLVYLMQGQLLNALLDFQNLYKTDIRIFPTDLVKRTVESMSAPEWEGAEQAPELMRLISEILDKPHEASKLDDHVKKFKLPKKHMQLGDFMKRVQESGIVKDASIIHRLFEALTVGQEKQIDPETFKDFYNCWKETEAEAQEVSLPWLVMEHLDKNECVCKLSSSVKTNLGVGKIAMTQKRLFLLTEGRPGYLEISTFRNIEEVRRTTTTFLLRRIPTLKIRVASKKEVFEANLKTECDLWHLMVKEMWAGKKLADDHKDPHYVQQALTNVLLMDAVVGTLQSPGAIYAASKLSYFDKMSNEMPMTLPETTLETLKHKINPSAGEAFPQAVDVLLYTPGHLDPAEKVEDAHPKLWCALSEGKVTVFNASSWTIHQHSFKVGTAKVNCMVMADQNQVWVGSEDSVIYIINVHSMSCNKQLTAHCSSVTDLIVQDGQEAPSNVYSCSMDGMVLVWNVSTLQVTSRFQLPRGGLTSIRLHGGRLWCCTGNSIMVMKMNGSLHQELKIEENFKDTSTSFLAFQLLPEEEQLWAACAGRSEVYIWSLKDLAQPPQRVPLEDCSEINCMIRVKKQVWVGSRGLGQGTPKGKIYVIDAERKTVEKELVAHMDTVRTLCSAEDRYVLSGSGREEGKVAIWKGE [DENND3]” the “solubility change mitosis (log2)” value (HeLa Kyoto [1]) was -0.197 and the “solubility in G1/S (log2)” value (HeLa Kyoto [2]) was -0.339.
In the case of “MALDPADQHLRHVEKDVLIPKIMREKAKERCSEQVQDFTKCCKNSGVLMVVKCRKENSALKECLTAYYNDPAFYEECKMEYLKEREEFRKTGIPTKKRLQKLPTSM [CMC1]”, the “solubility change mitosis (log2)” value (HeLa Kyoto [1]) is reported as 0.26 and the “solubility in G1/S (log2)” value (HeLa Kyoto [2]) is reported as -0.253.
“MPALLERPKLSNAMARALHRHIMMERERKRQEEEEVDKMMEQKMKEEQERRKKKEMEERMSLEETKEQILKLEEKLLALQEEKHQLFLQLKKVLHEEEKRRRKEQSDLTTLTSAAYQQSLTVHTGTHLLSMQGSPGGHNRPGTLMAADRAKQMFGPQVLTTRHYVGSAAAFAGTPEHGQFQGSPGGAYGTAQPPPHYGPTQPAYSPSQQLRAPSAFPAVQYLSQPQPQPYAVHGHFQPTQTGFLQPGGALSLQKQMEHANQQTGFSDSSSLRPMHPQALHPAPGLLASPQLPVQMQPAGKSGFAATSQPGPRLPFIQHSQNPRFYHK [GPS2]” was tested, and the “solubility change mitosis (log2)” value (HeLa Kyoto [1]) was -0.0529 and the “solubility in G1/S (log2)” value (HeLa Kyoto [2]) was 0.416.
For “MYRLMSAVTARAAAPGGLASSCGRRGVHQRAGLPPLGHGWVGGLGLGLGLALGVKLAGGLRGAAPAQSPAAPDPEASPLAEPPQEQSLAPWSPQTPAPPCSRCFARAIESSRDLLHRIKDEVGAPGIVVGVSVDGKEVWSEGLGYADVENRVPCKPETVMRIASISKSLTMVALAKLWEAGKLDLDIPVQHYVPEFPEKEYEGEKVSVTTRLLISHLSGIRHYEKDIKKVKEEKAYKALKMMKENVAFEQEKEGKSNEKNDFTKFKTEQENEAKCRNSKPGKKKNDFEQGELYLREKFENSIESLRLFKNDPLFFKPGSQFLYSTFGYTLLAAIVERASGCKYLDYMQKIFHDLDMLTTVQEENEPVIYNRARFYVYNKKKRLVNTPYVDNSYKWAGGGFLSTVGDLLKFGNAMLYGYQVGLFKNSNENLLPGYLKPETMVMMWTPVPNTEMSWDKEGKYAMAWGVVERKQTYGSCRKQRHYASHTGGAVGASSVLLVLPEELDTETINNKVPPRGIIVSIICNMQSVGLNSTALKIALEFDKDRSD [LACTB]”, the “solubility change mitosis (log2)” value (HeLa Kyoto [1]) was 0.376 and the “solubility in G1/S (log2)” value (HeLa Kyoto [2]) was -2.26.
In the case of “MTMGDKKSPTRPKRQAKPAADEGFWDCSVCTFRNSAEAFKCSICDVRKGTSTRKPRINSQLVAQQVAQQYATPPPPKKEKKEKVEKQDKEKPEKDKEISPSVTKKNTNKKTKPKSDILKDPPSEANSIQSANATTKTSETNHTSRPRLKNVDRSTAQQLAVTVGNVTVIITDFKEKTRSSSTSSSTVTSSAGSEQQNQSSSGSESTDKGSSRSSTPKGDMSAVNDESF [RYBP]”, the “solubility change mitosis (log2)” value (HeLa Kyoto [1]) is reported as 0.0865 and the “solubility in G1/S (log2)” value (HeLa Kyoto [2]) is reported as 0.252.
With “MSTAMNFGTKSFQPRPPDKGSFPLDHLGECKSFKEKFMKCLHNNNFENALCRKESKEYLECRMERKLMLQEPLEKLGFGDLTSGKSEAKK [COX19]” the “solubility change mitosis (log2)” value (HeLa Kyoto [1]) was 0.143 and the “solubility in G1/S (log2)” value (HeLa Kyoto [2]) was 0.00408.
In the case of “MSWLLFLAHRVALAALPCRRGSRGFGMFYAVRRGRKTGVFLTWNECRAQVDRFPAARFKKFATEDEAWAFVRKSASPEVSEGHENQHGQESEAKASKRLREPLDGDGHESAEPYAKHMKPSVEPAPPVSRDTFSYMGDFVVVYTDGCCSSNGRRRPRAGIGVYWGPGHPLNVGIRLPGRQTNQRAEIHAACKAIEQAKTQNINKLVLYTDSMFTINGITNWVQGWKKNGWKTSAGKEVINKEDFVALERLTQGMDIQWMHVPGHSGFIGNEEADRLAREGAKQSED [RNASEH1]”, the “solubility change mitosis (log2)” value (HeLa Kyoto [1]) is reported as -0.0935 and the “solubility in G1/S (log2)” value (HeLa Kyoto [2]) is reported as 0.274.
In the case of “MWEKMETKTIVYDLDTSGGLMEQIQALLAPPKTDEAEKRSRKPEKEPRRSGRATNHDSCDSCKEGGDLLCCDHCPAAFHLQCCNPPLSEEMLPPGEWMCHRCTVRRKKREQKKELGHVNGLVDKSGKRTTSPSSDTDLLDRSASKTELKAIAHARILERRASRPGTPTSSASTETPTSEQNDVDEDIIDVDEEPVAAEPDYVQPQLRRPFELLIAAAMERNPTQFQLPNELTCTTALPGSSKRRRKEETTGKNVKKTQHELDHNGLVPLPVKVCFTCNRSCRVAPLIQCDYCPLLFHMDCLEPPLTAMPLGRWMCPNHIEHVVLNQKNMTLSNRCQVFDRFQDTVSQHVVKVDFLNRIHKKHPPNRRVLQSVKRRSLKVPDAIKSQYQFPPPLIAPAAIRDGELICNGIPEESQMHLLNSEHLATQAEQQEWLCSVVALQCSILKHLSAKQMPSHWDSEQTEKADIKPVIVTDSSVTTSLQTADKTPTPSHYPLSCPSGISTQNSLSCSPPHQSPALEDIGCSSCAEKSKKTPCGTANGPVNTEVKANGPHLYSSPTDSTDPRRLPGANTPLPGLSHRQGWPRPLTPPAAGGLQNHTVGIIVKTENATGPSSCPQRSLVPVPSLPPSIPSSCASIENTSTLQRKTVQSQIGPPLTDSRPLGSPPNATRVLTPPQAAGDGILATTANQRFSSPAPSSDGKVSPGTLSIGSALTVPSFPANSTAMVDLTNSLRAFMDVNGEIEINMLDEKLIKFLALQRIHQLFPSRVQPSPGSVGTHQLASGGHHIEVQRKEVQARAVFYPLLGLGGAVNMCYRTLYIGTGADMDVCLTNYGHCNYVSGKHACIFYDENTKHYELLNYSEHGTTVDNVLYSCDFSEKTPPTPPSSIVAKVQSVIRRRRHQKQDEEPSEEAAMMSSQAQGPQRRPCNCKASSSSLIGGSGAGWEGTALLHHGSYIKLGCLQFVFSITEFATKQPKGDASLLQDGVLAEKLSLKPHQGPVLRSNSVP [PHF12]”, the “solubility change mitosis (log2)” value (HeLa Kyoto [1]) is reported as 0.237 and the “solubility in G1/S (log2)” value (HeLa Kyoto [2]) is reported as -0.326.
